Experimental findings from patent US20220220218A1 (JIANGSU HENGRUI MEDICINE, published 2022) are described below.

Test [1] concerns the target T1, human CD73 (huCD73) protein, antigen of the Biacore assay (human, UniProt P21589 27-547, limits assumed).
T1 construct: also called human CD73 antigen
T1 sequence (looked up): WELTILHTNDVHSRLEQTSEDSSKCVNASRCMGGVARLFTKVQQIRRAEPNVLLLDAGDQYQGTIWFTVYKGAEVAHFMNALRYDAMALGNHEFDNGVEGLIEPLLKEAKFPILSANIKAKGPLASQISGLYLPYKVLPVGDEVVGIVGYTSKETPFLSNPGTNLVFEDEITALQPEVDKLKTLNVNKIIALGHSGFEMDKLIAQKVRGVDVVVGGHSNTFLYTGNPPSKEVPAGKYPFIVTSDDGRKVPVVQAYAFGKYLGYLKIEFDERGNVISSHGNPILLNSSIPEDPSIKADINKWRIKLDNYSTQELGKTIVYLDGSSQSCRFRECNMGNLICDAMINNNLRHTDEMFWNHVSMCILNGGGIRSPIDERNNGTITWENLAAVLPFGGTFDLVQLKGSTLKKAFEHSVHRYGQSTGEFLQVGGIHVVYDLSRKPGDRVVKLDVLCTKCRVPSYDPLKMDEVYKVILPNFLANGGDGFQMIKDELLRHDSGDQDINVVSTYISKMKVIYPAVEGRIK
Description: SPR Biacore T200; antibody captured on Protein A chip, CD73 in flow; 1:1 Langmuir. The method, boiled down: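 Antibody was captured on a Protein A chip and human or cynomolgus CD73 antigen was flowed over it in HBS-EP running buffer. Surfaces were regenerated with glycine-HCl pH 1.5, and affinities came from a 1:1 Langmuir fit.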

The target of test [2] is T2, human CD73 on tumor cell line MDA-MB-231 that highly expresses human CD73 (human, UniProt P21589 27-549).
T2 construct: whole, on cells; Cells were fixed on the plate for the cell ELISA and live for the enzyme assay; also called MDA-MB-231 cells
T2 sequence (looked up): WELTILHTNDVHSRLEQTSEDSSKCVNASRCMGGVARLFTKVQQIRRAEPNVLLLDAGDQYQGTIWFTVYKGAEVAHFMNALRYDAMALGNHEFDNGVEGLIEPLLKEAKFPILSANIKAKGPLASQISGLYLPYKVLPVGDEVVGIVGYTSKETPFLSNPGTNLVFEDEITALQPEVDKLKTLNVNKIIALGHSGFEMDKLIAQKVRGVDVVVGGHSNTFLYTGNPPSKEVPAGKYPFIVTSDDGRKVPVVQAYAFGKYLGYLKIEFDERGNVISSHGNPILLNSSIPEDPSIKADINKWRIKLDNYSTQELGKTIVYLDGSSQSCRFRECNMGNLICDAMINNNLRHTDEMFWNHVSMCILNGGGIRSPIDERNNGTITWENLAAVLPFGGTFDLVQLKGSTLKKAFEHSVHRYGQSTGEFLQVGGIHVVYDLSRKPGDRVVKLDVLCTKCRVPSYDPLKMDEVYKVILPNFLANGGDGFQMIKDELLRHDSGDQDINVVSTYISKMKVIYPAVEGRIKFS
Description: cell ELISA on fixed MDA-MB-231 cells. As to the method:
The MDA-MB-231 cells were directly coated onto a 96-well microtiter plate. The signal strength after the addition of the antibody was used to determine the binding activity of the antibody to MDA-MB-231 cells. The specific experimental procedures were as follows:
MDA-MB-231 cells (ATCC, Cat No HTB-26) were seeded in the 96-well plate (Corning, Cat No. CLS3599-100EA) at a density of 6×10⁵/ml, 100 μl/well, and cultured overnight. The supernatant was discarded, the plate was washed with PBS for three times, 100 μl/well of cell immune fixed solution (Beyotime, Cat No. P0098) was added and fixed for half an hour at room temperature, and the plate washed with PBS for four times. The liquid was discarded, 250 μl/well blocking solution (5% skim milk diluted in PBS) was added, and incubated in an incubator at 37° C. for 3 hours. After the blocking was finished, the blocking solution was discarded, the plate was washed for 5 times with PBST buffer, 50 μl/well of various concentrations of each of the test antibodies were added, and incubated in an incubator at 37° C. for 1 hour. After the incubation was finished, the plate was washed for 5 times with PBST, 50 μl/well of HRP-labeled goat anti-mouse secondary antibody (Jackson Immuno Research, Cat No. 115-035-003) or goat anti-human secondary antibody (Jackson Immuno Research, Cat No. 109-035-003) diluted with sample diluent was added, and incubated at 37° C. for 1 hour. The plate was washed for 5 times with PBST, 50 μl/well of TMB chromogenic substrate (KPL, Cat No. 52-00-03) was added, incubated at room temperature for 5-15 min, and 50 μl/well of 1M H₂SO₄ was added to stop the reaction. The absorbance value was read by a microplate reader (Molecular Devices, VERSA max) at a wavelength of 450 nm, and the data was analyzed with GraphPad Prism 5. The binding of anti-CD73 antibody to MDA-MB-231 cells over-expressing CD73 was calculated as EC50 value.
(ELISA stands for enzyme-linked immunosorbent assay.)

B1: Hab110.21 (antibody, human IgG1, kappa, V domains shown)
VH: EVQLVQSGAEVKKPGASVKVSCKASGYTFTSYTMHWVRQAPGQRLEWMGYINPNSFYIEYNQKFKDRVTITRDTSASTAYMELSSLRSEDTAVYYCARGDYDLFYDMDNWGQGTTVTVSS
VL: DIQMTQSPSSLSASVGDRVTITCRASQDIGNSLNWLQQKPGKAIKRLIYATFRLDSGVPSRFSGSRSGTEYTLTISSLQPEDFATYYCQQYASFPWTFGGGTKVEIKR
notes: also called humanized antibody of mab110
One may read the Kd as the constant that tells how readily two partners part at equilibrium. A high value points to weaker binding. For orientation: koff means the first-order rate constant of dissociation. A high value points to a short-lived complex. For orientation: kon means the rate constant with which the complex forms. A lower kon goes with slow association. One may read the EC50 as the concentration at which the effect is half-maximal. In test [1], B1 displayed a Kd of 0.0944 nM, an off-rate (koff) of 6.14e-05 s⁻¹ and a kon of 650000 M⁻¹ s⁻¹. The EC50 in test [2] worked out at 0.056 nM.

B2: Hab127.31d (antibody, human IgG1, kappa, V domains shown)
VH: EVQLVQSGAEVKKPGASVKVSCKASGYTFTAYFMNWVRQAPGQGLEWMGRIYHNKGDTFYSQKFKGRVTMTVDKSTSTVYMELSSLRSEDTAVYYCATSYVGDWGQGTTVTVSS
VL: DIQMTQSPSSLSASVGDRVTITCRASQDIGDSLNWLQQKPGGALKRLIYATSSLDSGVPSRFSGSGSGTEYTLTISSLQPEDFATYYCLQYASFPWTFGGGTKVEIKR
notes: also called humanized antibody of mab127
In test [1], B2 registered a Kd of 0.257 nM, a koff of 5.81e-05 s⁻¹ and an on-rate (kon) of 226000 M⁻¹ s⁻¹. Also, the EC50 in test [2] was determined as 0.072 nM.

B3: Hab108.64 (antibody, human IgG1, kappa, V domains shown)
VH: EVTLKQSGPGLVKPTETLTLTCTVSGFSLSSYGIQWVRQPPGKGLEWLGVIWSGGSADYNAAFISRLTISKDTSKSQVVLTMTNMDPVDTATYYCAGQYGSVWGQGTLVTVSS
VL: DIQMTQSPSSLSASVGDRVTITCRASQDIGDRLNWLQQKPGGAIKRLIYATSSLDSGVPKRFSGSGSGTEYTLTISSLQPEDFATYYCLQYAGSWTFGGGTKVEIKR
notes: also called humanized antibody of mab108
In test [1], B3 came in with a Kd of 0.412 nM, a koff of 9.24e-05 s⁻¹ and a kon of 224000 M⁻¹ s⁻¹. In test [2], this molecule had an EC50 of 0.062 nM.

B4: CPX006 (antibody CPX-006 disclosed in patent application WO2018013611) (antibody, V domains shown)
VH: QVQLVQSGAEVEKPGASVKVSCKASGYTFTSYWITWVRQAPGQGLEWMGDIYPGSGNTNYNEKFKTRVTITADKSTSTAYMELSSLRSEDTAVYYCAKEGGLTTEDYALDYWGQGTLVTVSS
VL: EIVLTQSPATLSLSPGERATLSCRASKNVSTSGYSYMHWYQQKPGQAPRLLIYLASNLESGIPPRFSGSGYGTDFTLTINNIESEDAAYYFCQHSRELPFTFGQGTKVEIKR
In test [1], B4 yielded a Kd of 1.85 nM, a koff of 0.000368 s⁻¹ and a kon of 199000 M⁻¹ s⁻¹. Moreover, the EC50 in test [2] came out at 0.433 nM.
